Reference: the RNAGym collection of RNA variant scans (doi:10.1021/acssynbio.7b00057)

B1: Pistol ribozyme (parent)
chain: GGGUCGUUGUUCCAUAAUCGCGUGGAUAUGGCACGCAAGUUUCUACCGGGCACCGUAAAUGUCCGACUGGAGCCGUUCGGGCGGCUAUAAACAGACCUCAGGCCCGAAGCGUGGCGGCACCUGCCGCCGGUGGUAAAAAAGAUCGGAAGAGCACACGUCU

Variants of: B1
Test: aptazyme ON/OFF ratio, guanine; higher = stronger switching; co-transcriptional cleavage with and without guanine
For U7C G9U U10C U11C C12U C13A, the “aptazyme ON/OFF ratio” value was 1.02.
For U7C G9U U10C U11C C12U C13G, the “aptazyme ON/OFF ratio” value was 1.02.
For U7C G9U U10C U11C C12U C13U, the “aptazyme ON/OFF ratio” value was 1.05.
For U7C G9U U10C U11C C12A C13U, the “aptazyme ON/OFF ratio” value was 1.01.
With U7C G9U U10C U11C C12A C13G the “aptazyme ON/OFF ratio” value was 1.08.
With U7C G9U U10C U11C C12A C13A the “aptazyme ON/OFF ratio” value was 1.04.
For U7C G9U U10G U11C, the “aptazyme ON/OFF ratio” value was 1.09.
With U7C G9U U10G U11A the “aptazyme ON/OFF ratio” value was 1.03.
In the case of U7C G9U U10G U11G, the “aptazyme ON/OFF ratio” value is reported as 1.11.
In the case of U7C G9U U10G U11C C12U C13A, the “aptazyme ON/OFF ratio” value is reported as 1.19.
In the case of U7C G9U U10G U11C C12U C13G, the “aptazyme ON/OFF ratio” value is reported as 1.05.
For U7C G9U U10G U11C C12U C13U, the “aptazyme ON/OFF ratio” value was 1.19.
For U7C U8A C12A, the “aptazyme ON/OFF ratio” value was 1.3.
For U7C U8A C12G, the “aptazyme ON/OFF ratio” value was 1.37.
For U7C U8A C12U, the “aptazyme ON/OFF ratio” value was 1.68.
For U7C G9U U10C U11A C12G, the “aptazyme ON/OFF ratio” value was 1.05.
With U7C G9U U10C U11A C12U the “aptazyme ON/OFF ratio” value was 1.19.
With U7C G9U U10G U11G C12U C13U the “aptazyme ON/OFF ratio” value was 1.11.
For U7C G9U U10G U11G C12U C13A, the “aptazyme ON/OFF ratio” value was 1.07.
With U7C G9U U10G U11G C12U C13G the “aptazyme ON/OFF ratio” value was 1.13.
For U7C G9U U11A C12A C13U, the “aptazyme ON/OFF ratio” value was 1.29.
For U7C G9U U11A C12A C13G, the “aptazyme ON/OFF ratio” value was 1.1.
With U7C G9U U11A C12A C13A the “aptazyme ON/OFF ratio” value was 1.25.
With U7C G9U U11G C12U C13G the “aptazyme ON/OFF ratio” value was 1.11.
In the case of U7C G9U U11G C12U C13A, the “aptazyme ON/OFF ratio” value is reported as 1.17.
In the case of U7C G9U U11G C12U C13U, the “aptazyme ON/OFF ratio” value is reported as 1.3.
In the case of U7C G9U U11C C13G, the “aptazyme ON/OFF ratio” value is reported as 1.02.
For U7C G9U U11C C13A, the “aptazyme ON/OFF ratio” value was 1.05.
For U7C G9U U11C C13U, the “aptazyme ON/OFF ratio” value was 1.05.
In the case of U7C G9U U10C U11C C12A, the “aptazyme ON/OFF ratio” value is reported as 1.06.
For U7C G9U U10C U11C C12G, the “aptazyme ON/OFF ratio” value was 1.02.
For U7C G9U U10C U11C C12U, the “aptazyme ON/OFF ratio” value was 1.02.
For U7C G9U U10G U11A C12G C13A, the “aptazyme ON/OFF ratio” value was 1.11.
For U7C G9U U10G U11A C12G C13G, the “aptazyme ON/OFF ratio” value was 1.24.
For U7C G9U U10G U11A C12G C13U, the “aptazyme ON/OFF ratio” value was 1.12.
In the case of U7C G9U U10C U11G C12G C13G, the “aptazyme ON/OFF ratio” value is reported as 1.11.
In the case of U7C G9U U10C U11G C12G C13A, the “aptazyme ON/OFF ratio” value is reported as 1.1.
In the case of U7C G9U U10C U11G C12G C13U, the “aptazyme ON/OFF ratio” value is reported as 1.11.
In the case of U7C U8A, the “aptazyme ON/OFF ratio” value is reported as 3.27.
For U7C G9U U10C U11G C12A C13U, the “aptazyme ON/OFF ratio” value was 1.11.
With U7C G9U U10C U11G C12A C13A the “aptazyme ON/OFF ratio” value was 1.11.
With U7C G9U U10C U11G C12A C13G the “aptazyme ON/OFF ratio” value was 1.1.
In the case of U7C G9U U10C U11C, the “aptazyme ON/OFF ratio” value is reported as 1.05.
In the case of U7C G9U U10C U11G, the “aptazyme ON/OFF ratio” value is reported as 1.18.
In the case of U7C G9U U11C C12G C13U, the “aptazyme ON/OFF ratio” value is reported as 1.07.
For U7C G9U U11C C12G C13G, the “aptazyme ON/OFF ratio” value was 1.06.
For U7C G9U U11C C12G C13A, the “aptazyme ON/OFF ratio” value was 1.05.
For U7C G9U U10G U11G C13A, the “aptazyme ON/OFF ratio” value was 1.09.
With U7C G9U U10G U11G C13U the “aptazyme ON/OFF ratio” value was 1.1.
For U7C G9U U10G U11G C13G, the “aptazyme ON/OFF ratio” value was 1.1.
With U7C G9U U10C U11G C12U C13A the “aptazyme ON/OFF ratio” value was 1.14.
For U7C G9U U10C U11G C12U C13G, the “aptazyme ON/OFF ratio” value was 1.15.
With U7C G9U U10C U11G C12U C13U the “aptazyme ON/OFF ratio” value was 1.16.
In the case of U7C G9U U10G C12U, the “aptazyme ON/OFF ratio” value is reported as 1.39.
For U7C G9U U10G C12A, the “aptazyme ON/OFF ratio” value was 1.21.
For U7C G9U U10G C12G, the “aptazyme ON/OFF ratio” value was 1.12.
With U7C G9U U10G U11A C12G the “aptazyme ON/OFF ratio” value was 1.27.
In the case of U7C G9U U10G U11A C12A, the “aptazyme ON/OFF ratio” value is reported as 1.2.
In the case of U7C G9U U10G U11A C12U, the “aptazyme ON/OFF ratio” value is reported as 1.08.
In the case of U7C G9U U11G C12G C13G, the “aptazyme ON/OFF ratio” value is reported as 1.17.
In the case of U7C G9U U11G C12G C13A, the “aptazyme ON/OFF ratio” value is reported as 1.18.
For U7C G9U U11G C12G C13U, the “aptazyme ON/OFF ratio” value was 1.1.
With U7C G9U U10G U11G C12G C13A the “aptazyme ON/OFF ratio” value was 1.13.
For U7C G9U U10G U11G C12G C13U, the “aptazyme ON/OFF ratio” value was 1.08.
With U7C G9U U10G U11G C12G C13G the “aptazyme ON/OFF ratio” value was 1.12.
For U7C G9U U10C U11G C12G, the “aptazyme ON/OFF ratio” value was 1.1.
With U7C G9U U10C U11G C12U the “aptazyme ON/OFF ratio” value was 1.22.
For U7C G9U U10C U11G C12A, the “aptazyme ON/OFF ratio” value was 1.09.
For U7C G9U U10G C13G, the “aptazyme ON/OFF ratio” value was 1.06.
For U7C G9U U10G C13U, the “aptazyme ON/OFF ratio” value was 1.37.
For U7C G9U U10G C13A, the “aptazyme ON/OFF ratio” value was 1.25.
For U7C G9U U10G U11A C12U C13U, the “aptazyme ON/OFF ratio” value was 1.1.
With U7C G9U U10G U11A C12U C13A the “aptazyme ON/OFF ratio” value was 1.19.
For U7C G9U U10G U11A C12U C13G, the “aptazyme ON/OFF ratio” value was 1.1.
In the case of U7C G9U U10G U11C C12A C13A, the “aptazyme ON/OFF ratio” value is reported as 1.17.
For U7C G9U U10G U11C C12A C13U, the “aptazyme ON/OFF ratio” value was 1.17.
With U7C G9U U10G U11C C12A C13G the “aptazyme ON/OFF ratio” value was 1.17.
For U7C G9U U10G, the “aptazyme ON/OFF ratio” value was 1.38.
For U7C G9U U10C U11C C13U, the “aptazyme ON/OFF ratio” value was 1.
With U7C G9U U10C U11C C13A the “aptazyme ON/OFF ratio” value was 1.
In the case of U7C G9U U10C U11C C13G, the “aptazyme ON/OFF ratio” value is reported as 1.06.
With U7C G9U U11A C13A the “aptazyme ON/OFF ratio” value was 1.2.
With U7C G9U U11A C13U the “aptazyme ON/OFF ratio” value was 1.25.
